# Results published in US9433687B2, “Anti-Notch3 antibodies and antibody-drug conjugates” (Pfizer Inc., priority 2012, dated 2016).
# Tested on: HCC2429 lung xenografts
# Test: HCC2429 lung xenograft model (unconjugated antibodies)
# Format: in vivo, mouse
# Conditions: for tumor volume (mm^3 ± SEM): iv Q4dx4
# Method: Additional in vivo experiments were performed with the HCC2429 lung cancer cell line using an unconjugated rat-human chimeric anti-Notch3 antibody, ch75-hIgG1, to determine whether ch75-hIgG1's Notch3 signaling inhibition contributed to the observed potency of the anti-Notch3 hu75-ADCs. To generate xenografts, nude (Nu/Nu) female mice were implanted subcutaneously with 3.5×10^6 HCC2429 cells in 50% Matrigel (BD Biosciences).
# The HCC2429 lung model was dosed intravenously Q4d×4 with PBS vehicle, rat-human chimeric anti-Notch3 antibody, ch75-hIgG1, and humanized anti-Notch1 antibody, hu438 VH1.1/VL1.8, at the does provided in Table 22. From 8 animals, mean tumor masses (±SEM) for each treatment group were calculated and compared to the control PBS vehicle group. P-values based on analysis of variance (ANOVA) were calculated to determine statistical significance of observed growth inhibition of anti-Notch treatments versus control PBS using Excel built-in statistical functions. Percent (%) growth inhibition values were calculated from measurements on the final day of the study for drug-treated compared with vehicle-treated mice with the formula 100*{1−[(TreatedDay 14−TreatedDay 0)/(ControlDay 14−ControlDay 0)]}.
molecule,measurement,setting,value
"ch75: rat-human chimeric anti-Notch3 antibody 75, rat variable regions fused with human IgG1 and human kappa (antibody, V domains shown) VH: QVKLLQSGAALVKPGASVKMSCKASGYAFTDYWVTWVKQSHGKSLEWIGEISPNSGGTNFNEKFKGKATLTVDKSTSTAYMELSRLTSEDSAIYYCTRGEIRYNWFAYWGQGTLVTVSS VL: NIVMTQSPKSMSISVGDRVTMNCKASQNVGNNIAWYQQKPGQSPKLLIYYASNRYTGVPDRFTGGGYGTDFTLTINSMQAEDAAFYYCQRLYNSPFTFGSGTKLEIK",tumor volume (mm^3 ± SEM),"Day 0, dose not given",110 ± 5 mm^3
same,tumor volume (mm^3 ± SEM),Day 3,211 ± 24 mm^3
same,tumor volume (mm^3 ± SEM),Day 5,356 ± 41 mm^3
same,tumor volume (mm^3 ± SEM),Day 7,574 ± 59 mm^3
same,tumor volume (mm^3 ± SEM),Day 10,1054 ± 104 mm^3
same,tumor volume (mm^3 ± SEM),Day 12,1441 ± 139 mm^3
same,tumor volume (mm^3 ± SEM),Day 14,1821 ± 175 mm^3
same,tumor growth inhibition compared to PBS vehicle,final day of the study (Day 14),did not inhibit tumor growth
